± gives the standard error. For part of these data: Variants at the floor of the assay were thinned out.
B1: glmS ribozyme (parent)
chain: AUAAAAGCGCCAGAACUACAGAAAUGUAGUUGACGAGGAGGAGGUUUAUCGAAUUUUCGGCGGAUGCCUCCAAA

Columns and labels:
Details in all cases: with glucosamine-6-phosphate
[1] = variants of: B1; test: kcat; higher = faster cleavage; RNA array
Method in brief: (§1)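 Barcoded ribozyme variants on sequenced MiSeq chips were transcribed in situ by E. coli RNA polymerase and followed at 37 °C through a hybridised Cy3 probe. Glucosamine-6-phosphate at 40 μM to 10 mM in HEPES/KCl/Mg(OAc)2 buffer was flowed in, and tiles were imaged over ~14 h. Signals were normalised to baseline and to non-cleaving reference variants, and per-tile medians were fit to one- or two-exponential decays to give kobs. Weighted Michaelis–Menten fits across concentrations gave kcat and KM.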

[2] = variants of: B1; test: KM; higher = weaker cofactor use; RNA array
Method in brief: as §1

[3] = variants of: B1; test: self-cleavage kobs at 2500 uM GlcN6P; higher = faster cleavage; RNA array
Method in brief: as §1

[4] = variants of: B1; test: self-cleavage kobs at 10000 uM GlcN6P; higher = faster cleavage; RNA array
Method in brief: as §1

[5] = variants of: B1; test: self-cleavage kobs at 160 uM GlcN6P; higher = faster cleavage; RNA array
Method in brief: as §1

[6] = variants of: B1; test: self-cleavage kobs at 640 uM GlcN6P; higher = faster cleavage; RNA array
Method in brief: as §1

[7] = variants of: B1; test: self-cleavage kobs at 40 uM GlcN6P; higher = faster cleavage; RNA array
Method in brief: as §1

Row | Variant | kcat [1] [s⁻¹] | KM [2] [µM] | self-cleavage kobs at 2500 uM GlcN6P [3] [s⁻¹] | self-cleavage kobs at 10000 uM GlcN6P [4] [s⁻¹] | self-cleavage kobs at 160 uM GlcN6P [5] [s⁻¹] | self-cleavage kobs at 640 uM GlcN6P [6] [s⁻¹] | self-cleavage kobs at 40 uM GlcN6P [7] [s⁻¹]
1 | G37A U65A | 0.000179 ± 2.2e-05 | 4340 ± 1300 | 7.66e-05 ± 1.9e-05 | 0.000124 ± 1.4e-05 |  |  | 
2 | G32A C68A | 1.56e-05 ± 4.4e-06 |  |  |  |  |  | 
3 | A12U C68G | 0.000191 ± 2.7e-05 | 624 ± 230 | 0.00016 ± 1.2e-05 | 0.000186 ± 1.6e-05 | 5.38e-05 ± 6.4e-06 | 8.22e-05 ± 7.3e-06 | 
4 | G43A U54G | 0.000123 ± 6e-06 | 2490 ± 310 | 6.39e-05 ± 1.5e-05 | 9.76e-05 ± 1.9e-05 |  |  | 
5 | G7C A53G | < 1e-05 |  |  | < 1e-05 |  |  | 
6 | A14C U69G | 4.01e-05 ± 6.9e-06 |  | 4.06e-05 ± 9.1e-06 | 3.03e-05 ± 1.2e-05 | 6.28e-05 ± 2.1e-05 | 5.28e-05 ± 2.2e-05 | 
7 | G38A C68A | < 1e-05 |  |  | < 1e-05 |  |  | < 1e-05
8 | C34G G38A C58A C68G | 5.13e-05 ± 7.5e-06 |  | 4.79e-05 ± 1.7e-05 |  |  | 5.22e-05 ± 1.6e-05 | 
9 | U46C | 0.00387 ± 0.00034 | 1410 ± 170 | 0.00342 ± 0.00018 | 0.00329 ± 7.7e-05 | 0.000364 ± 1.3e-05 | 0.00126 ± 3.5e-05 | 0.000108 ± 2.5e-06
10 | U30C C58A | 2.21e-05 ± 6e-06 |  | 2.92e-05 ± 1.1e-05 |  |  |  | 
11 | G7U C67G | < 1e-05 |  | < 1e-05 |  |  |  | 
12 | A39U U54C | 0.0342 ± 0.014 |  | 0.00989 ± 0.0032 | 0.0285 ± 0.0042 |  | 0.00436 ± 0.00054 | 0.000447 ± 5e-05
13 | C19A G59U | 0.000115 ± 2.9e-05 |  |  | 3.11e-05 ± 1.5e-05 |  |  | 
14 | C16A C71A | 0.000128 ± 2e-05 |  | 0.000187 ± 3.1e-05 | 0.000114 ± 1.2e-05 | 3.26e-05 ± 1.3e-05 | 7.22e-05 ± 1.1e-05 | 
15 | G32A U56C | 0.000235 ± 2.8e-05 | 2950 ± 670 | 9.95e-05 ± 1.6e-05 | 0.000191 ± 3.1e-05 |  | 4.72e-05 ± 1e-05 | 
16 | G32A U56A | 0.000939 ± 0.0002 | 5360 ± 1600 | 0.000295 ± 4.3e-05 | 0.000619 ± 9.9e-05 | 4.57e-05 ± 1.5e-05 | 9.47e-05 ± 1.5e-05 | 
17 | A12G U47C | 0.000813 ± 9.1e-05 | 3820 ± 720 | 0.000412 ± 8.3e-05 | 0.000577 ± 6.1e-05 | 3.52e-05 ± 1.3e-05 | 0.000111 ± 1.5e-05 | 

Row | Variant | kcat [1] [s⁻¹] | KM [2] [µM] | self-cleavage kobs at 2500 uM GlcN6P [3] [s⁻¹] | self-cleavage kobs at 10000 uM GlcN6P [4] [s⁻¹] | self-cleavage kobs at 160 uM GlcN6P [5] [s⁻¹] | self-cleavage kobs at 640 uM GlcN6P [6] [s⁻¹] | self-cleavage kobs at 40 uM GlcN6P [7] [s⁻¹]
18 | A39C U56A | 0.00331 ± 0.00086 | 4000 ± 1500 | 0.00133 ± 0.00019 | 0.00238 ± 0.00034 | 0.000129 ± 3.6e-05 | 0.000412 ± 5.2e-05 | 5.87e-05 ± 1.3e-05
19 | A52G U57C | 0.000378 ± 1.3e-05 | 1790 ± 110 | 0.000227 ± 3.1e-05 | 0.000314 ± 4.4e-05 | 2.83e-05 ± 1.3e-05 | 9.94e-05 ± 1e-05 | 
20 | G59U G66U | < 1e-05 |  |  | < 1e-05 |  |  | < 1e-05
21 | U56G U69A | 0.00018 ± 3.2e-05 |  | 0.000186 ± 3.1e-05 | 0.000176 ± 3.7e-05 |  | 0.000102 ± 2.7e-05 | 4.08e-05 ± 1.8e-05
22 | G13A U55G C71G | 4.93e-05 ± 1.6e-05 |  | 7.49e-05 ± 2.8e-05 | 4.08e-05 ± 1.6e-05 |  |  | < 1e-05
23 | G13A U47A | 0.000438 ± 6e-05 | 3210 ± 750 | 0.000178 ± 3.2e-05 | 0.000349 ± 6.5e-05 |  | 7.42e-05 ± 1.6e-05 | 
24 | A33U U47G | 4.65e-05 ± 3.9e-06 |  | 4.09e-05 ± 6.6e-06 | 4.2e-05 ± 5.3e-06 |  |  | < 1e-05
25 | A14U A39U | 0.00814 ± 0.0024 | 3050 ± 1200 | 0.00346 ± 0.00063 | 0.00632 ± 0.00089 | 0.000258 ± 6.7e-05 | 0.00161 ± 0.00024 | 0.000133 ± 1.7e-05
26 | A64G C70U | 0.00369 ± 0.001 | 2630 ± 1000 | 0.00162 ± 0.00027 | 0.00298 ± 0.00027 | 0.000149 ± 2.2e-05 | 0.000786 ± 7.7e-05 | 7.77e-05 ± 7.5e-06
27 | A14C A53G C58A C70G | 3.76e-05 ± 1.2e-05 |  |  |  | 5.16e-05 ± 2e-05 |  | 
28 | U47A A48G | 7.44e-05 ± 1.1e-05 |  | 8.16e-05 ± 2.9e-05 | 6.69e-05 ± 1.3e-05 |  | 7.58e-05 ± 2e-05 | 
29 | A12G C70G | 0.000171 ± 1.5e-05 | 856 ± 240 | 0.000109 ± 1.6e-05 | 0.000166 ± 1.6e-05 |  | 7.9e-05 ± 1e-05 | 
30 | G62C U69C | < 1e-05 |  |  |  |  | < 1e-05 | < 1e-05
31 | G41U A42C | 1.89e-05 ± 1.4e-06 | 2750 ± 590 |  |  | < 1e-05 |  | < 1e-05
32 | A39U C67G | 0.00521 ± 0.0013 | 1290 ± 420 | 0.00196 ± 0.00069 | 0.00516 ± 0.00068 | 0.000514 ± 7.5e-05 | 0.00221 ± 0.00032 | 0.000162 ± 1.8e-05
33 | G29C A33U | 2.55e-05 ± 6.2e-07 | 979 ± 140 |  | 2.33e-05 ± 1.2e-05 |  |  | 
